# Assay results reported in patent publication US20030017596A1.
# Biological target: Recombinant B19 parvovirus empty capsid particles (VP1/2) (B19 parvovirus) (UniProt P07299)
# Experiment: cell-based or functional assay
substance,measurement,value
anti-B19 parvovirus monoclonal antibody (MAB8292),"BFU-E colony counts (% of medium control), fetal liver cells; capsid 7 µg/ml + 0.02 µg/mL Mab (capsid only: 43%) (% of medium control)",52
same,"BFU-E colony counts (% of medium control), fetal liver cells; capsid 7 µg/ml + 0.2 µg/mL Mab (capsid only: 43%) (% of medium control)",52
same,"BFU-E colony counts (% of medium control), fetal liver cells; capsid 7 µg/ml + 2.0 µg/mL Mab (capsid only: 43%) (% of medium control)",69
same,"BFU-E colony counts (% of medium control), fetal liver cells; capsid 7 µg/ml + 20.0 µg/mL Mab (capsid only: 43%) (% of medium control)",> 100
same,"CFU-GEMM colony counts (% of medium control), fetal liver cells; capsid 7 µg/ml + 0.02 µg/mL Mab (capsid only: 21%) (% of medium control)",21
same,"CFU-GEMM colony counts (% of medium control), fetal liver cells; capsid 7 µg/ml + 0.2 µg/mL Mab (capsid only: 21%) (% of medium control)",19
same,"CFU-GEMM colony counts (% of medium control), fetal liver cells; capsid 7 µg/ml + 2.0 µg/mL Mab (capsid only: 21%) (% of medium control)",45
same,"CFU-GEMM colony counts (% of medium control), fetal liver cells; capsid 7 µg/ml + 20.0 µg/mL Mab (capsid only: 21%) (% of medium control)",67
same,"CFU-GM colony counts (% of medium control), fetal liver cells; capsid 7 µg/ml + 0.02 µg/mL Mab (capsid only: 30%) (% of medium control)",30
same,"CFU-GM colony counts (% of medium control), fetal liver cells; capsid 7 µg/ml + 0.2 µg/mL Mab (capsid only: 30%) (% of medium control)",21
same,"CFU-GM colony counts (% of medium control), fetal liver cells; capsid 7 µg/ml + 2.0 µg/mL Mab (capsid only: 30%) (% of medium control)",35
same,"CFU-GM colony counts (% of medium control), fetal liver cells; capsid 7 µg/ml + 20.0 µg/mL Mab (capsid only: 30%) (% of medium control)",74
